Test results reported in patent US20200157198A1 (POPULAS BIOPHARMACEUTICAL WUHAN, published 2020).

B1: 5A2F9-4 antibody (antibody, V domains shown)
VH: QVQLQQPGAELVKPGASVKLSCKASGYTFTSYWMHWVKQRPGQGLEWIGEINPRNGRINQNEKFKSKATLTVAKSSSTAYMQLSSLTSEDSAVYYCSRGGGSSAEGGYWGQGTTLTVSS
VL: DVLMTQTPLSLPVSLGDQASISCRSSQSIVHSNGNTYLDWYLQKPGQSPKLLIYKVFNRLSGVPDRFSGSGSGTDFTLKISRVEAEDLGVYYCFQGSHVPLTFGAGTKLELQ
notes: Mouse hybridoma monoclonal antibody

What was measured:
[1] = target: polypeptide C8079BB030-1 (…); test: indirect ELISA on coated peptide (1 ug/ml); unimmunized serum 1:1,000; column No. 1954
[2] = target: polypeptide C8079BB030-1 (…); test: indirect ELISA on coated peptide (1 ug/ml); unimmunized serum 1:1,000; column No. 1955
[3] = target: polypeptide C8079BB030-1 (…); test: indirect ELISA on coated peptide (1 ug/ml); unimmunized serum 1:1,000; column No. 1956
[4] = target: polypeptide C8079BB030-1 (…); test: indirect ELISA on coated peptide (1 ug/ml); unimmunized serum 1:1,000; column No. 1957
[5] = target: polypeptide C8079BB030-1 (…); test: indirect ELISA on coated peptide (1 ug/ml); unimmunized serum 1:1,000; column No. 1958
[6] = target: T1, HA-tagged human Nav1.9 expressed in ND7/23 cells (human, UniProt Q9UI33 1-1791, limits assumed); test: Western blot of lysate of ND7/23 cells transfected with HA-hNav1.9; antibody 1:300
T1 construct: Assayed as SDS-PAGE-separated lysate of transfected ND7/23 cells (Western blot); also called HA-hNav1.9; human Nav1.9-HA; not shown: HA tag
T1 sequence (Q9UI33 whole entry): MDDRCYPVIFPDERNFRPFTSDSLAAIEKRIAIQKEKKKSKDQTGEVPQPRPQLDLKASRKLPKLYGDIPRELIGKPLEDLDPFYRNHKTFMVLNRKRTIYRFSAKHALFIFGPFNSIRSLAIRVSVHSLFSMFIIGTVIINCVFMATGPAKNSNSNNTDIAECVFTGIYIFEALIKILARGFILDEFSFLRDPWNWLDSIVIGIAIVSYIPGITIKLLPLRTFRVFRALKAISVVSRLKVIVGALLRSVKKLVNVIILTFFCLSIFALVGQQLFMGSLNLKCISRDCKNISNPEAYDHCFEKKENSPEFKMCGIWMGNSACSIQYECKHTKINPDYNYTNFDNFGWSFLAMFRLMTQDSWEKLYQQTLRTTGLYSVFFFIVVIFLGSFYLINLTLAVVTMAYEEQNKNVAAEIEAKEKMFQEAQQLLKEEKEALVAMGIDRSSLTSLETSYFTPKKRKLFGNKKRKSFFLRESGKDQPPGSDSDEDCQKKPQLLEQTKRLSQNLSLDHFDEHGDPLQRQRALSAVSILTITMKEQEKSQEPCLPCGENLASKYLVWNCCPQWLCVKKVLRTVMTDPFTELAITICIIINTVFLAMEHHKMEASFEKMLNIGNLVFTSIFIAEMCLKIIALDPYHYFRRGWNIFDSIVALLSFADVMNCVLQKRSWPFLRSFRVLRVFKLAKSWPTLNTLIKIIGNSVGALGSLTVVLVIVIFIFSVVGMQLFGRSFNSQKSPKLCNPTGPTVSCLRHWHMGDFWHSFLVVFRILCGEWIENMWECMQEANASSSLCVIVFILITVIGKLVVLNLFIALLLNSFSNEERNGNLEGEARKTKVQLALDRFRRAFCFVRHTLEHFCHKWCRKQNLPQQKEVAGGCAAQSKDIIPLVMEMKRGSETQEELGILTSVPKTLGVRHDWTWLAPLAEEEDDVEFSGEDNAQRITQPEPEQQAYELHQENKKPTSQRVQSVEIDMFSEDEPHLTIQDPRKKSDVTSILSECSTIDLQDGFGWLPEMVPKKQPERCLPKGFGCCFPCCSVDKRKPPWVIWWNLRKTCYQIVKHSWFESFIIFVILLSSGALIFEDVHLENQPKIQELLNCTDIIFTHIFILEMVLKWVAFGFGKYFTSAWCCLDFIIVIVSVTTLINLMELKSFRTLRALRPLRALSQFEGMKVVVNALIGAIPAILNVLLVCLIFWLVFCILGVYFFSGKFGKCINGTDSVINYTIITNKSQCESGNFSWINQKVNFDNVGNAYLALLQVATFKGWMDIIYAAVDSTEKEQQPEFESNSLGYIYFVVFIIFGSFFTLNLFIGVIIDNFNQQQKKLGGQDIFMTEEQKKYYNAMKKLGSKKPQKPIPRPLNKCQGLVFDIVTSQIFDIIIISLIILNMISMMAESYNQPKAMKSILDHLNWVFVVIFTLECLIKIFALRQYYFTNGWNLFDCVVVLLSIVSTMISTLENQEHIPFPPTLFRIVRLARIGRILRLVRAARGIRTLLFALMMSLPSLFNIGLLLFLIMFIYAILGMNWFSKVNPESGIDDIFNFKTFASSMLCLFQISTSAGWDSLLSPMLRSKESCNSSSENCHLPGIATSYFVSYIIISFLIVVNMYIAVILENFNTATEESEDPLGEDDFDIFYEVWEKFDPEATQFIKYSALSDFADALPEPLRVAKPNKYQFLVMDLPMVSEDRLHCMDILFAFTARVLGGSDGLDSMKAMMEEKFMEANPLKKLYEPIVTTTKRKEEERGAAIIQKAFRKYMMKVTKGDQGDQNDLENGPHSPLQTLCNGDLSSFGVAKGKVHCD
Procedure: 4. The cell lysate was centrifuged at 12000 rpm for 10 minutes at 4° C. to collect the cell lysis supernatant.
6. After […], the cells were incubated with HA tag (1:2000) antibody and 5A2F9-4 (1:300) antibody for 1 hour at room temperature.
8. A digoxigenin-labeled anti-mouse antibody (1:20000) was added and incubated for 1 hour at room temperature;

OD value (450 nm) [1] [OD450]	OD value (450 nm) [2] [OD450]	OD value (450 nm) [3] [OD450]	OD value (450 nm) [4] [OD450]	OD value (450 nm) [5] [OD450]	binding result [6]	Molecule
0.072	0.066	0.086	0.088	0.104	–	negative control of unimmunized serum
–	–	–	–	–	binds	B1
